Measured values as given in patent US11499200B2, “Methods for determining resistance or susceptibility to HIV entry inhibitors” (Monogram Biosciences, Inc., priority 2005, dated 2022).

Legend:
[1] = target: clone 3 of FIG. 6 envelope protein (clone 11 of FIGS. 7-9), with L261S (HIV-1); test: cell-based or functional assay
[2] = target: clone 3 of FIG. 6 envelope protein with the wild-type residue at position 261 (HIV-1); test: cell-based or functional assay
[3] = tested on: HIV-1 particles pseudotyped with patient-derived or chimeric envelope proteins (gp160); test: Cell based HIV-1 entry assay (pseudotyped virus, luciferase): entry inhibitor susceptibility; conditions: FIG. 6; compared with sensitivity to B4
Protocol: In this embodiment, drug susceptibility, co-receptor tropism and virus neutralization testing are performed by co-transfecting a host cell with pHIVenv and pHIVlucΔU3. The host cell produces HIV particles that are pseudo-typed with HIV envelope sequences derived from the test virus or subject sample. Virus particles are collected (˜48 h) after transfection and are used to infect target cells that express HIV receptors (e.g. CD4) and co-receptors (e.g. CXCR4, CCR5). After infection (˜72 h) the target cells are lysed and luciferase activity is measured. HIV must complete one round of replication to successfully infect the target host cell and produce luciferase activity. […]
Drug susceptibility testing was performed using pHIVenv and pHIVluc or pHIVlucΔU3. […] After infection (˜72 h) the target cells are lysed and luciferase activity is measured. […] The amount of luciferase activity detected in the infected cells is used as a direct measure of “infectivity” (FIGS. 1 and 2). […] Drug susceptibility is assessed by comparing the infectivity in the absence of drug to infectivity in the presence of drug. Relative drug susceptibility can be quantified by comparing the susceptibility of the “test” virus to the susceptibility of a well-characterized reference virus (wildtype) derived from a molecular clone of HIV-1, for example NL4-3 or HXB2. […]

Substance	IC50 of PRO542, log-sigmoid inhibition curves of the entry assay [1] [µg/ml]	IC50 of PRO542, log-sigmoid inhibition curves of the entry assay [2] [µg/ml]	sensitivity to entry inhibitor, sixteen clones of one patient [3]
PRO542 (from UniProt P01730 26-204) (receptor)	11	0.9	
TNX-355: HIV entry inhibitor under investigation (Tanox Inc.), listed as CD4 binding site entry inhibitor			varied inversely to sensitivity to B4
